B2: His tag-acVHH-V104D, soluble (VHH, not shown: small tags and cut ends)
VHH: QVQLVESGGGLVQAGGSLRLSCTASGRTGTIYSMAWFRQAPGKEREFLATVGWSSGITYYMDSVKGRFTISRDKGKNTVYLQMDSLKPEDTAVYYCTATRAYSDGYDYWGQGTQVTVSS
notes: also called AB1; Tag-V104D
B3: M1 ΔAA displayed on yeast (VHH, not shown: large carriers; small tags and cut ends)
chain: QVQLVESGGGLVQAGGSLRLSATASGRTGTIYSMAWFRQAPGKEREFLAPVALGLQSTYYMDSVKGRFTISRDKGKNTVYLQMDSLKPEDTAVYYATATRAYSVGYDYWGQGTQVTVSS
notes: also called acVHH-M1 C22A C96A
B4: M1 ΔAV displayed on yeast (VHH, not shown: large carriers; small tags and cut ends)
chain: QVQLVESGGGLVQAGGSLRLSATASGRTGTIYSMAWFRQAPGKEREFLAPVALGLQSTYYMDSVKGRFTISRDKGKNTVYLQMDSLKPEDTAVYYVTATRAYSVGYDYWGQGTQVTVSS
notes: also called acVHH-M1 C22A C96V
B5: M1 ΔAW displayed on yeast (VHH, not shown: large carriers; small tags and cut ends)
chain: QVQLVESGGGLVQAGGSLRLSATASGRTGTIYSMAWFRQAPGKEREFLAPVALGLQSTYYMDSVKGRFTISRDKGKNTVYLQMDSLKPEDTAVYYWTATRAYSVGYDYWGQGTQVTVSS
notes: also called acVHH-M1 C22A C96W
B6: M1 ΔFA displayed on yeast (VHH, not shown: large carriers; small tags and cut ends)
chain: QVQLVESGGGLVQAGGSLRLSFTASGRTGTIYSMAWFRQAPGKEREFLAPVALGLQSTYYMDSVKGRFTISRDKGKNTVYLQMDSLKPEDTAVYYATATRAYSVGYDYWGQGTQVTVSS
notes: also called acVHH-M1 C22F C96A
B7: M1 ΔGW displayed on yeast (VHH, not shown: large carriers; small tags and cut ends)
chain: QVQLVESGGGLVQAGGSLRLSGTASGRTGTIYSMAWFRQAPGKEREFLAPVALGLQSTYYMDSVKGRFTISRDKGKNTVYLQMDSLKPEDTAVYYWTATRAYSVGYDYWGQGTQVTVSS
notes: also called acVHH-M1 C22G C96W
B8: M1 ΔVA displayed on yeast (VHH, not shown: large carriers; small tags and cut ends)
chain: QVQLVESGGGLVQAGGSLRLSVTASGRTGTIYSMAWFRQAPGKEREFLAPVALGLQSTYYMDSVKGRFTISRDKGKNTVYLQMDSLKPEDTAVYYATATRAYSVGYDYWGQGTQVTVSS
notes: also called acVHH-M1 C22V C96A
B9: M1 ΔWA displayed on yeast (VHH, not shown: large carriers; small tags and cut ends)
chain: QVQLVESGGGLVQAGGSLRLSWTASGRTGTIYSMAWFRQAPGKEREFLAPVALGLQSTYYMDSVKGRFTISRDKGKNTVYLQMDSLKPEDTAVYYATATRAYSVGYDYWGQGTQVTVSS
notes: also called acVHH-M1 C22W C96A
B10: M1 ΔWP displayed on yeast (VHH, not shown: large carriers; small tags and cut ends)
chain: QVQLVESGGGLVQAGGSLRLSWTASGRTGTIYSMAWFRQAPGKEREFLAPVALGLQSTYYMDSVKGRFTISRDKGKNTVYLQMDSLKPEDTAVYYPTATRAYSVGYDYWGQGTQVTVSS
notes: also called acVHH-M1 C22W C96P
B11: acVHH-V104D displayed on yeast (Aga2p-HA-tag-(Gly4Ser)3 linker-acVHH-V104D-c-myc tag) (VHH, not shown: large carriers; small tags and cut ends)
VHH: QVQLVESGGGLVQAGGSLRLSCTASGRTGTIYSMAWFRQAPGKEREFLATVGWSSGITYYMDSVKGRFTISRDKGKNTVYLQMDSLKPEDTAVYYCTATRAYSDGYDYWGQGTQVTVSS

Assays:
[1] = biological target: T1, acVHH-WT displayed on yeast (Aga2p-HA-tag-(Gly4Ser)3 linker-acVHH-WT-c-myc tag); assay: yeast surface display; 400 nM soluble acVHH-WT, caffeine titrated (data of FIG. 3I); mean ± S.D.
T1 construct: Yeast surface display fusion on S. cerevisiae EBY100
Excerpt: (§1) Measured with yeast display and normalized to maximum binding signal (n=3, averages±standard deviations).

[2] = biological target: T2, dfM1-2 displayed on yeast (Aga2p-HA-tag-(Gly4Ser)3 linker-dfM1-2-c-myc tag); assay: yeast surface display titration with soluble acVHH-V104D, 30 µM caffeine, signal normalised to the maximum
T2 construct: also called disulfide free M1 variant

[3] = biological target: T3, dfM1-1 displayed on yeast (Aga2p-HA-tag-(Gly4Ser)3 linker-dfM1-1-c-myc tag); assay: as above
T3 construct: also called disulfide free M1 variant

[4] = biological target: T4, acVHH-M1 displayed on yeast (Aga2p-HA-tag-(Gly4Ser)3 linker-acVHH-M1-c-myc tag); assay: as above
T4 construct: also called AB2

[5] = biological target: T2, dfM1-2 displayed on yeast …; assay: yeast surface display titration with soluble acVHH-V104D, + caffeine (30 µM, data of FIG. 3H); mean ± S.D.
[6] = biological target: T3, dfM1-1 displayed on yeast …; assay: as above
[7] = biological target: T4, acVHH-M1 displayed on yeast …; assay: as above
[8] = biological target: T1, acVHH-WT displayed on yeast …; assay: yeast surface display, flow cytometry; soluble acVHH-V104D with 10 µM compound or without
Experimental: Expression of the acVHH variants on yeast was induced by culturing the cells in SG-CAA medium (20 g/L galactose, 2 g/L glucose, 6.7 g/L yeast nitrogen base, 5 g/L bacto casamino acids, 10.2 g/L Na₂HPO₄*7 H₂O, 8.56 g/L NaH₂PO₄*H₂O) overnight at 20° C. and 180 rpm. Detection of full-length proteins on the surface of the cells was carried out by staining the cells with anti-c-myc AlexaFluor 488 (9E10, Thermo Fisher).

[9] = biological target: T2, dfM1-2 displayed on yeast …; assay: yeast surface display; 400 nM soluble acVHH-V104D, caffeine titrated (data of FIG. 3I); mean ± S.D.
Experimental: (§2) Expression of the variants on yeast was carried out in SG-CAA as described above.
as §1

[10] = biological target: T3, dfM1-1 displayed on yeast …; assay: as above
Experimental: as §2, §1

[11] = biological target: T4, acVHH-M1 displayed on yeast …; assay: as above
Experimental: as §2, §1

[12] = biological target: B11; assay: yeast surface display, flow cytometry; soluble acVHH-V104D with and without 10 µM caffeine
Experimental: (§3) The staining for flow cytometry characterization was performed in PBSA (PBS containing 15 μM bovine serum albumin). […] After a final washing step, the cells were analyzed with a CytoFLEX S flow cytometer (Beckman Coulter).

[13] = biological target: B9; assay: yeast surface display, flow cytometry; soluble acVHH-V104D with and without 10 µM caffeine (n=1)
[14] = biological target: B8; assay: as above
[15] = biological target: B4; assay: as above
[16] = biological target: B7; assay: as above
[17] = biological target: B3; assay: as above
[18] = biological target: B10; assay: as above
[19] = biological target: B6; assay: as above
[20] = biological target: B5; assay: as above
[21] = biological target: B2; assay: yeast surface display, flow cytometry (n=1)
[22] = biological target: B2; assay: yeast surface display, flow cytometry
Experimental: as §3

T1 sequence (chain, as listed by the source): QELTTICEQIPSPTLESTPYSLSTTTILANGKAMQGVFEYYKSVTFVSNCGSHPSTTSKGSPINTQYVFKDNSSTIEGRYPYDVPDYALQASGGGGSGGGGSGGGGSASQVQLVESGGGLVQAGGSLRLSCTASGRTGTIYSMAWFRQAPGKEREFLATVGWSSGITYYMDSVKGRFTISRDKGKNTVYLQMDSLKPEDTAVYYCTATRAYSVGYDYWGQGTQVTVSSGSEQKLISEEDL

B1: His tag-acVHH-WT anti-caffeine nanobody, soluble (VHH)
VHH: QVQLVESGGGLVQAGGSLRLSCTASGRTGTIYSMAWFRQAPGKEREFLATVGWSSGITYYMDSVKGRFTISRDKGKNTVYLQMDSLKPEDTAVYYCTATRAYSVGYDYWGQGTQVTVSS
notes: Expressed in E. coli; also called AB0; not shown: His tag
With B1 the “EC50,YSD (caffeine concentration for half-maximal dimerisation)” value (“EC50,YSD” for short) [1] was 4300 nM.

For B2, the “EC50 (read off the curve)” value [2] was roughly 20 nM, the “EC50 (read off the curve)” value [3] was roughly 20 nM and the “EC50 (read off the curve)” value [4] was roughly 30 nM. The Kd [5] was 21.8 nM, the Kd [6] was 18.8 nM and the Kd [7] was 30 nM. The binding result [8] was “no binding (tested: 500 nM)”, the “EC50,YSD” value [9] was 124000 nM and the “EC50,YSD” value [10] was 83000 nM. The “EC50,YSD” value [11] was 104000 nM, the binding result [12] was “no binding (tested: 500 nM)” and the binding result [13] was “no binding (tested: 500 nM)”. B2: no binding (tested: 500 nM) [14]; no binding (tested: 500 nM) [15]; no binding (tested: 500 nM) [16]. B2: no binding (tested: 500 nM) [17]; no binding (tested: 500 nM) [18]; no binding (tested: 500 nM) [19]. B2: no binding (tested: 500 nM) [20].

B3: no binding [21].

B4: no binding [21].

B5: no binding [21].

B6: no binding [21].

B7: no binding [21].

B8: no binding [21].

B9: no binding [21].

B10: no binding [21].

B11: no binding [22].

Reference: patent US20240400722A1 (MILTENYI BIOTEC B V, published 2024)
